Results as given in US11278600B2, “Human alpha-galactosidase variants” (Codexis, Inc., priority 2014, dated 2022).
Where a chain is given by its changes, count along the chain named.

B1: 325 (protein)
chain: LDNGLARTPTMGWLHWERFMCNLDCQEEPDSCISEKLFMEMAERMVSEGWKDAGYEYLCIDDCWMAPQRDSEGRLQADPQRFPHGIRQLANYVHSKGLKLGIYADVGNKTCAGFPGSFGYYDIDAQTFADWGVDLLKFDGCYCDSLENLADGYKHMSLALNRTGRSIVYSCEWPLYMWPFQKPNYTEIRQYCNHWRNFADIDDSWASIKSILDWTSRNQERIVDVAGPGGWNDPDMLVIGNFGLSWDQQVTQMALWAIMAAPLFMSNDLRHISPQAKALLQDKDVIAINQDPLGKQGYQLRQGDNFEVWERPLSGDAWAVAIINRQEIGGPRSYTIPVASLGGGVACNPACFITQLLPVKRQLGFYNWTSRLKSHINPTGTVLLQLENTMQMSLKDLL
modifications: Synthetic Polypeptide sequence of Variant No. 325 of mature Human GLA
B2: 317 (protein)
chain: LDNGLARTPTMGWLHWERFMCNLDCQEEPDSCISEKLFMEMAELMVSEGWKDAGYEYLCIDDCWMAPQRDSEGRLQADPQRFPHGIRQLANYVHSKGLKFGIYADVGNKTCAGFPGSFGYYDIDAQTFADWGVDLLKFDGCYCDSLENLADGYKHMSLALNRTGRSIVYSCEWPLYMWPFQKPNYTEIRQYCNHWRNFADIDDSWASVKSILDWTSFNQEKIVDVAGPGGWNDPDMLVIGNFGLSWNQQVTQMALWAIMAAPLFMSNDLRHISPQAKALLQDKDVIAINQDPLGKQGYQLRQGDNFEVWERPLSGLAWAVAVINRQEIGGPRSYTIAVASLGDGVACNPACFITQLLPVKRKLGLYNWTSRLKSHINPTGTVLLQLENTMQMSLKDLL
modifications: Synthetic Polypeptide sequence of Variant No. 317 of mature Human GLA
B3: 322 (protein)
chain: B2 chain with V208I, K221T, Q302K, V322I, L365F
modifications: Synthetic Polypeptide sequence of Variant No. 322 of mature Human GLA
B4: 321 (protein)
chain: B2 chain with V208I, N247D, V322I, D343G, L365F
modifications: Synthetic Polypeptide sequence of Variant No. 321 of mature Human GLA
B5: 323 (protein)
chain: B2 chain with L160I, V208I, D343K, L365F
modifications: Synthetic Polypeptide sequence of Variant No. 323 of mature Human GLA
B6: 320 (protein)
chain: B2 chain with V208I, K221R, N247D, Q302K, V322I, D343K, L365F
modifications: Synthetic Polypeptide sequence of Variant No. 320 of mature Human GLA
B7: 319 (protein)
chain: B2 chain with V208I, K221R, V322I, D343K, L365F, I376V
modifications: Synthetic Polypeptide sequence of Variant No. 319 of mature Human GLA
B8: 324 (protein)
chain: B2 chain with L23S, F100L, V208I, K221R, V322I, D343K, L365F
modifications: Synthetic Polypeptide sequence of Variant No. 324 of mature Human GLA
B9: 318 (protein)
chain: B2 chain with K221T, D343K, L365F, I376V
modifications: Synthetic Polypeptide sequence of Variant No. 318 of mature Human GLA

Assays:
Type in all cases: biochemical
[1] = HTP-analysis of yeast culture supernatants, no challenge (MUGal hydrolysis); conditions: activity of the variant/activity of Rd3BB (SEQ ID NO: 13), yeast culture supernatant
How it was run: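 GLA variants were expressed in INVSc1 yeast grown in SD-Ura broth with glucose at 30° C., and culture supernatants were collected after 66-84 h. Supernatant was mixed with McIlvaine buffer pH 4.8 and MUGal (2 mM stock) in 50 mM citrate, 200 mM KCl, pH 4.6, incubated at 37° C. for 30-180 minutes, then quenched with sodium carbonate.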

[2] = HTP-analysis of supernatants pretreated with acid (MUGal hydrolysis); conditions: challenge at pH 4.0; activity of the variant/activity of Rd3BB (SEQ ID NO: 13); yeast culture supernatant
How it was run: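 Fluorescence of MUGal hydrolysis (Ex. 355 nm, Em. 448 nm) is read after sodium carbonate quench. The enzyme source is INVSc1 yeast culture supernatant, first exposed to pH 3.3-4.3 McIlvaine buffer at 37° C. for 1-3 h, then reacted at pH 4.8 for 30-180 minutes.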

[3] = HTP-analysis of supernatants pretreated with base (MUGal hydrolysis); conditions: challenge at pH 8.2; activity of the variant/activity of Rd3BB (SEQ ID NO: 13); yeast culture supernatant
How it was run: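 GLA variants secreted from yeast INVSc1; culture supernatants pre-incubated with McIlvaine buffer pH 7.0–8.2 or 200 mM bicarbonate pH 9.1–9.7 at 37° C. for 1–18 h. Residual activity: MUGal (4 mM stock) hydrolysis at pH 4.3–4.8, 37° C., 30–180 min, carbonate quench; fluorescence Ex 355/Em 448 nm.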

[4] = HTP-analysis of supernatants pretreated with bovine serum (MUGal hydrolysis); conditions: activity of the variant/activity of Rd3BB (SEQ ID NO: 13), yeast culture supernatant
How it was run: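 Yeast INVSc1 culture supernatants containing secreted GLA variants were mixed with bovine serum (20:80) and held 1 h at 37° C. Serum-treated samples then reacted with MUGal (4 mM stock) in citrate/McIlvaine buffer (pH 4.3/4.8) for 180 min at 37° C., were quenched with sodium carbonate, and read by fluorescence (Ex 355, Em 448 nm).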

Molecule | Relative Activity of GLA Variants After No Challenge (NC) [1] | Relative Activity of GLA Variants After Challenge at pH 4.0 [2] | Relative Activity of GLA Variants After Challenge at pH 8.2 [3] | Relative Activity of GLA Variants After Challenge with Serum [4]
B1 | ++ (++ = >1.5 to 2.5 relative activity over Rd3BB (SEQ ID NO: 13)) | +++ (+++ = >2.5 relative activity over Rd3BB (SEQ ID NO: 13)) | +++ (+++ = >2.5 relative activity over Rd3BB (SEQ ID NO: 13)) | +++ (+++ = >2.5 relative activity over Rd3BB (SEQ ID NO: 13))
B2 | + (+ = 0.5 to 1.5 relative activity over Rd3BB (SEQ ID NO: 13)) | + (+ = 0.5 to 1.5 relative activity over Rd3BB (SEQ ID NO: 13)) | − (− = <0.5 relative activity to Rd3BB (SEQ ID NO: 13)) | − (− = <0.5 relative activity to Rd3BB (SEQ ID NO: 13))
B3 | + (+ = 0.5 to 1.5 relative activity over Rd3BB (SEQ ID NO: 13)) | + (+ = 0.5 to 1.5 relative activity over Rd3BB (SEQ ID NO: 13)) | ++ (++ = >1.5 to 2.5 relative activity over Rd3BB (SEQ ID NO: 13)) | + (+ = 0.5 to 1.5 relative activity over Rd3BB (SEQ ID NO: 13))
B4 | ++ (++ = >1.5 to 2.5 relative activity over Rd3BB (SEQ ID NO: 13)) | ++ (++ = >1.5 to 2.5 relative activity over Rd3BB (SEQ ID NO: 13)) | +++ (+++ = >2.5 relative activity over Rd3BB (SEQ ID NO: 13)) | + (+ = 0.5 to 1.5 relative activity over Rd3BB (SEQ ID NO: 13))
B5 | − (− = <0.5 relative activity to Rd3BB (SEQ ID NO: 13)) | − (− = <0.5 relative activity to Rd3BB (SEQ ID NO: 13)) | − (− = <0.5 relative activity to Rd3BB (SEQ ID NO: 13)) | + (+ = 0.5 to 1.5 relative activity over Rd3BB (SEQ ID NO: 13))
B6 | + (+ = 0.5 to 1.5 relative activity over Rd3BB (SEQ ID NO: 13)) | + (+ = 0.5 to 1.5 relative activity over Rd3BB (SEQ ID NO: 13)) | + (+ = 0.5 to 1.5 relative activity over Rd3BB (SEQ ID NO: 13)) | + (+ = 0.5 to 1.5 relative activity over Rd3BB (SEQ ID NO: 13))
B7 | + (+ = 0.5 to 1.5 relative activity over Rd3BB (SEQ ID NO: 13)) | + (+ = 0.5 to 1.5 relative activity over Rd3BB (SEQ ID NO: 13)) | + (+ = 0.5 to 1.5 relative activity over Rd3BB (SEQ ID NO: 13)) | + (+ = 0.5 to 1.5 relative activity over Rd3BB (SEQ ID NO: 13))
B8 | − (− = <0.5 relative activity to Rd3BB (SEQ ID NO: 13)) | − (− = <0.5 relative activity to Rd3BB (SEQ ID NO: 13)) | − (− = <0.5 relative activity to Rd3BB (SEQ ID NO: 13)) | − (− = <0.5 relative activity to Rd3BB (SEQ ID NO: 13))
B9 | + (+ = 0.5 to 1.5 relative activity over Rd3BB (SEQ ID NO: 13)) | + (+ = 0.5 to 1.5 relative activity over Rd3BB (SEQ ID NO: 13)) | ++ (++ = >1.5 to 2.5 relative activity over Rd3BB (SEQ ID NO: 13)) | + (+ = 0.5 to 1.5 relative activity over Rd3BB (SEQ ID NO: 13))
